How the values were obtained:
[1] = biological target: T1, human KLB / human FGFR1c complex on cells (human, UniProt Q86Z14 53-1044; P11362 22-822); assay: radiolabeled ligand competition binding (iodinated FGF21) on HEK293 cells expressing human FGFR1c and human KLB
T1 construct: both receptors co-expressed on HEK293 (or L6) cells; also called FGFR1c/KLB complex; 293huKLB/huR1c
Experimental: For the radioligand cell binding assay, HEK293 cells that stably co-expressing KLB and/or FGFR1c were placed into 96-well plate at a density of 100,000 to 200,000 cells per 0.2 mL in binding buffer (DMEM with 1% bovine serum albumin (BSA), 50 mM HEPES, pH 7.2, 0.1% sodium azide and 350 mM human IgG). […] Competition reactions with cells were incubated for 2 h at room temperature.

[2] = biological target: T1, human KLB / human FGFR1c complex on …; assay: cell-based or functional assay
FGFR1b = biological target: T2, FGFR1b (human, UniProt P11362-19 22-376, limits assumed); assay: SPR (BIACORE T100), antibody captured by anti-human Fc on a CM5 chip, FGFR1 ECD protein injected, 25 °C, 1:1 Langmuir fit
T2 construct: soluble protein in SPR and ELISA, whole receptor on L6 cells in the luciferase assay
T2 sequence (looked up): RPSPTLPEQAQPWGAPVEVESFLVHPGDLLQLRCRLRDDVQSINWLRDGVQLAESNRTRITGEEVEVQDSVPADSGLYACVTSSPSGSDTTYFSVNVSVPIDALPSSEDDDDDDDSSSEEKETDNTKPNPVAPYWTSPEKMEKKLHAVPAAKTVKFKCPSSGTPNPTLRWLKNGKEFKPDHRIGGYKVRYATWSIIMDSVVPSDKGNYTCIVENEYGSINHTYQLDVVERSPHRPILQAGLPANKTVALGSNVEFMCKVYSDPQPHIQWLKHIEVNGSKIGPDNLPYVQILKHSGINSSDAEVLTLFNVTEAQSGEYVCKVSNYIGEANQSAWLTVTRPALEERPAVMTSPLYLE

Kd [1] [nM] | EC50 in GAL-ELK1 assay in HEK293 cells [2] [nM] | Kd (FGFR1b) [nM] | koff (FGFR1b) [s⁻¹] | kon (FGFR1b) [M⁻¹ s⁻¹] | Binder
5.3 | 4.7 | – | – | – | hFGF21 (ligand, human, UniProt Q9NSA1 29-209, looked up, also called recombinant FGF21) HPIPDSSPLLQFGGQVRQRYLYTDDAQQTEAHLEIREDGTVGGAADQSPESLLQLKALKPGVIQILGVKTSRFLCQRPDGALYGSLHFDPEACSFRELLLEDGYNVYQSEAHGLPLHLPGNKSPHRDPAPRGPARFLPLPGLPPALPEPPGILAPQPPDVGSSDPLSMVGPSQGRSPSYAS
– | – | 1.13 | 0.0022 | 1.9e+06 | YW182.2 (antibody, V domains shown) VH: EVQLVESGGGLVQPGGSLRLSCAASGFTFTSTWISWVRQAPGKGLEWVGEIDPYDGDTYYADSVKGRFTISADTSKNTAYLQMNSLRAEDTAVYYCATEHFDAWVHYYVMDYWGQGTLVTVSS VL: DIQMTQSPSSLSASVGDRVTITCRASQDVSTAVAWYQQKPGKAPKLLIYSASFLYSGVPSRFSGSGSGTDFTLTISSLQPEDFATYYCQQSYTTPPTFGQGTKVEIK

Reference: patent publication US20220064331A1 (Genentech, published 2022)
